Ends that are not written are not given here.
Key:
[1] = target: T1, D1R from mouse hippocampus tissue (Mus musculus, UniProt Q61616); experiment: GST pulldown analysis of mouse hippocampus tissue extract with Western blot; format: binding; settings: 15 μg GST fusion protein, 500 μg mouse hippocampus tissue extract, overnight 4° C.
T1 construct: from tissue; host or cells: mouse hippocampus tissue extract
Description: In order to confirm the interbinding site of the 5-HT2AR/D1R complex, the 5-HT2AR full-length cDNA clone (Genbank Accession No.: NM_001378924) was first amplified to obtain cDNA fragments of the CT region of 5-HT2AR (K385-V471) and the third intracellular loop (IL3) region of 5-HT2AR (F255-V324). These fragments were subcloned to the BamH1/EcoR1 or BamH1/Xho1 site of a pGEX-4T-3 plasmid (YouBio no: VT1255). The initial methionine residue and termination codon were incorporated as appropriate. All constructs were resequenced to confirm that splicing and fusion was achieved appropriately. The GST fusion protein containing the third intracellular loop (IL3) of 5-HT2AR (GST-5HT2AR-IL3) and the GST fusion protein containing the CT region of 5-HT2AR (GST-5HT2AR-CT) were expressed from E. coli BL21 viable cells (AlpalifeBio, no: KTSM104L) and purified from bacterial lysate solution.
500 μg of dissolved mouse hippocampus tissue extract was diluted with 1×PBS/1% Triton X-100 and then incubated overnight with 20 μl protein GST resin saturated GST protein or 15 μg GST fusion protein at 4° C. Beads were washed 1-8 times with 1×PBS/1% Triton X-100. Binding proteins were eluted with 2×loading buffer, separated by SDS-PAGE, and underwent Western blot with respective antibodies thereof.
According to the method in the present Example, a pulldown analysis was performed using a GST fusion protein containing a KV region of 5-HT2AR (GST-5HT2AR-KV), a GST fusion protein containing a NN region of 5-HT2AR (GST-5HT2AR-NN), and a GST fusion protein containing a DV region of 5-HT2AR (GST-5HT2AR-DV), and the results of Western blot were shown in FIG. 4 B.
According to the method in the present Example, a pulldown analysis was performed using a GST fusion protein containing a DA region of 5-HT2AR (GST-5HT2AR-DA), and a GST fusion protein containing a SV region of 5-HT2AR (GST-5HT2AR-SV), and the results of Western blot were shown in FIG. 4 C.

5-HT2AR/D1R complex [2] = target: T2, 5-HT2AR/D1R complex (Mus musculus, UniProt Q61616); experiment: Co-immunoprecipitation of hippocampus tissue from polypeptide-treated mice; format: in vivo; settings: single intraperitoneal administration 3 nmol/g, 1 hour after treatment, control TAT only
T2 construct: Co-immunoprecipitation was performed using protein samples (100-500 μg protein) from mouse hippocampus tissue; from tissue; host or cells: hippocampus tissue of treated mice (naive, CRS, CMS, CSDS)
T2 sequence (Q61616 whole entry, one chain of several): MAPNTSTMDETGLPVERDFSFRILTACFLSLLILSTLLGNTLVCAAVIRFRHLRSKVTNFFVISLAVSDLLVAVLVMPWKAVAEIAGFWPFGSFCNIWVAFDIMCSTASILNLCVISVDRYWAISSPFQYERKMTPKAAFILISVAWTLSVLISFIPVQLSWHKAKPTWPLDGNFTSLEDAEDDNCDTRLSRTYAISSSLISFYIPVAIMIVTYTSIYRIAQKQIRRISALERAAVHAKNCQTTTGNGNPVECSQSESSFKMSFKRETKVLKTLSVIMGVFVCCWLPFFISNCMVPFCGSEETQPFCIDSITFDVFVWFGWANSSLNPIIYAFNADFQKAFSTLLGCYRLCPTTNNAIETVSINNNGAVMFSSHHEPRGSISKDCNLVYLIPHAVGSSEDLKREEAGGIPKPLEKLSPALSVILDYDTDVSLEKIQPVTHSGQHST
Description: (§1) Co-immunoprecipitation was performed using protein samples (100-500 μg protein) from mouse hippocampus tissue. Precipitation was performed using a mouse antibody against 5-HT2AR (SantaCruz Biotechnology, sc-166775) and 25 μl protein A/G plus agarose bead slurry (santaCruz Biotechnology, sc-2001).
(§2) Western blot analysis was carried out after precipitation: the denatured protein was separated on 8% SDS-PAGE gel, then transferred to cellulose nitrate membrane and blocked with TBST; then incubated with mouse antibodies against D1R (SantaCruz Biotechnology, sc-33660) and D2R (SantaCruz Biotechnology, sc-5303) overnight at 4° C.; finally, treated with HRP-coupled secondary antibody for 1 hour, SuperSignal ECL Chemiluminescence Kit was used to detect the signal, and Image Lab software was used to analyze the density of the bands.
Mice were treated with TAT-5HT2AR-SV, TAT-5HT2AR-DV and TAT-5HT2AR-CT, and mice treated with TAT only were used as control (all treated by single intraperitoneal administration, 3 nmol/g). 1 hour after the treatment, the mice used were analyzed according to the co-immunoprecipitation method in Example 1, and the results are shown in FIG. 5.

mice [3] = experiment: OFT for residence time in central area; format: in vivo, mouse; settings: single intraperitoneal 3 nmol/g, 1 hour after treatment, 5 min, vs TAT
Description: (§3) To evaluate the antianxiety-like effect of the polypeptide of the present invention, mice treated with TAT-5HT2AR-SV, TAT-5HT2AR-DV, TAT-5HT2AR-CT (all treated by single intraperitoneal administration, 3 nmol/g) were subjected to open field test (OFT) for measuring residence time in central area and elevated plus maze test (EPM) 1 hour after treatment, with TAT-treated mice as control. Methods for the tests are as follows:
OFT (for measuring the residence time in central area): open bottom surface was divided into 25 equal-area grids, with the middle 9 grids as the central area. 1 hour after treated with the polypeptide, mice were placed in the central area and recorded for 5 min, and the residence time of mice in the central area was recorded.

D1R and 5-HT2AR = experiment: Direct Western blot of hippocampus tissue from treated stressed mice; format: in vivo, mouse; settings: CRS, CMS and CSDS mice
Description: as §2
To further evaluate the ability of the polypeptide as an antidepressant, CRS, CMS and CSDS mouse models were constructed according to the method described in Example 2, respectively; 1 hour after construction, mouse models were treated with 10 μM TAT-5HT2AR-SV, TAT-5HT2AR-DV, TAT-5HT2AR-CT or TAT respectively (all treated by single intraperitoneal administration, 3 nmol/g); then FST and TST were performed on CRS, and FST, TST and sucrose preference test (SPT) were performed on CMS and CSDS mice respectively.
Further, the hippocampus tissue of treated CRS mice was directly analyzed by Western blot to investigate the expression levels of D1R and 5-HT2AR, and the results are shown in FIG. 10.
In addition, CRS, CMS and CSDS mice treated with TAT-5HT2AR-DV or TAT-5HT2AR-CT were tested respectively.

5-HT2AR/D1R complex [4] = target: T2, 5-HT2AR/D1R complex; experiment: Co-immunoprecipitation of hippocampus tissue from polypeptide-treated CRS, CMS and CSDS mice; format: in vivo; settings: hippocampus tissue of stressed CRS, single intraperitoneal 3 nmol/g, vs TAT
Description: as §1
Western blot analysis was carried out after precipitation: the denatured protein was separated on 8% SDS-PAGE gel, then transferred to cellulose nitrate membrane and blocked with TBST; then incubated with mouse antibodies against D1R (SantaCruz Biotechnology, sc-33660) and D2R (SantaCruz Biotechnology, sc-5303) overnight at 4° C.; finally, treated with HRP-coupled secondary antibody for 1 hour, SuperSignal ECL Chemiluminescence Kit was used to detect the signal, and Image Lab software was used to analyze the density of the bands. […]
The treated CRS, CMS and CSDS mice of Example 6 (TAT-5HT2AR-SV, TAT-5HT2AR-DV, TAT-5HT2AR-CT and TAT) were analyzed according to the co-immunoprecipitation method of Example 1, and the Western blot results were shown in FIG. 9, respectively.

mice [5] = experiment: Elevated plus maze test (EPM); format: in vivo, mouse; settings: single intraperitoneal 3 nmol/g, 1 hour after treatment, 5 min, vs TAT
Description: as §3
EPM: consists of two open arms (25 cm×8 cm) and two closed arms (25 cm×8 cm), with the intersection as the central area (8 cm×8 cm), which is 40 cm high from the ground. 1 hour after treated with the polypeptide, mice were placed in the central area facing the open arm, and were recorded for their free activities for 5 min. After each animal was tested, the device was wiped with 70% alcohol. The residence time at the open arm, the residence time at the closed arm, and the total movement distance of mice were recorded.

5-HT2AR and D1R = experiment: Direct Western blot of hippocampus tissue from polypeptide-treated mice; format: in vivo; settings: mouse hippocampus tissue, single intraperitoneal 3 nmol/g, vs TAT
Description: as §2
In addition, the hippocampus tissues of TAT-5HT2AR-SV and TAT-treated mice were directly analyzed by Western blot.

[6] = target: T3, 5-HT2A receptor (5-HT2AR), endogenous, from mouse hippocampus tissue (mouse, UniProt P35363 1-471); experiment: co-immunoprecipitation from mouse hippocampus tissue with anti-5-HT2AR antibody, Western blot for D2R
T3 construct: Native protein in a tissue lysate, precipitated with a mouse anti-5-HT2AR antibody (sc-166775)
T3 sequence (P35363 whole entry): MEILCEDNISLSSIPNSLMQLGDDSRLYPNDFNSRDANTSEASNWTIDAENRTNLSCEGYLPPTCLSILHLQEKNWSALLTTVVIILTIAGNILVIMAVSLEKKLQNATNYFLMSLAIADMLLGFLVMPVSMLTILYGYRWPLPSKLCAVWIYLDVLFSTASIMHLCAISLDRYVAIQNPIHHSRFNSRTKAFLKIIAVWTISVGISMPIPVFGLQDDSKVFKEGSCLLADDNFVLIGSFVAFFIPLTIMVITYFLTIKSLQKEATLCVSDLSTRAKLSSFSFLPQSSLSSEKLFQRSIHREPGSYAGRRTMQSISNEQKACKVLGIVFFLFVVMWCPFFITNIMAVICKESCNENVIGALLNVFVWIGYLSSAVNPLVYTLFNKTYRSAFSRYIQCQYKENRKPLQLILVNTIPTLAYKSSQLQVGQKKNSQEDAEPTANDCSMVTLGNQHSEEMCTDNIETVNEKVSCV

T1 sequence (Q61616 whole entry, the tested form may be a part): as the sequence (Q61616 whole entry, one chain of several) above

Row | Molecule | pulldown of / affinity to D1R [1] | interaction of 5-HT2AR/D1R (co-immunoprecipitation) (5-HT2AR/D1R complex [2]) | OFT residence time in the central region (mice [3]) | D1R and 5-HT2AR levels (D1R and 5-HT2AR) | interaction between 5-HT2AR and D1R (co-immunoprecipitation) (5-HT2AR/D1R complex [4]) | EPM residence time at the closed arm (mice [5]) | EPM residence time at the open arm (mice [5]) | expression of 5-HT2AR and D1R (5-HT2AR and D1R) | also measured
1 | GST-5HT2AR-DV: GST fusion protein containing a DV region of 5-HT2AR (D442-V471) (DCSMVALGKQHSEEASKDNSDGVNEKVSCV; not fully specified (N-terminus); cysteine pairing not given here; also: GST fusion protein) | can pulldown DIR |  |  |  |  |  |  |  | 
2 | GST-5HT2AR-SV: GST fusion protein containing a SV region of 5-HT2AR (S457-V471) (SKDNSDGVNEKVSCV; not fully specified (N-terminus); also: GST fusion protein) | has an affinity to D1R |  |  |  |  |  |  |  | 
3 | TAT-5HT2AR-DV: DV region (D442-V471) of 5-HT2AR fused with TAT (DCSMVALGKQHSEEASKDNSDGVNEKVSCV; cysteine pairing not given here; also: fused with TAT peptide at C-terminal region; UniProt P28223 442-471, looked up, fragment) |  | successfully destroyed the interaction of 5-HT2AR/D1R | significantly increased the residence time | did not cause a significant change | significantly reduced the interaction between 5-HT2AR and D1R | decreased residence time at the closed arm | significantly increased residence time at the open arm | did not cause a significant change | 
4 | Dopamine D2 receptor (D2R), endogenous, from mouse hippocampus tissue (receptor, UniProt P61168 1-444, looked up, Native protein in a tissue lysate, detected by Western blot with sc-5303) MDPLNLSWYDDDLERQNWSRPFNGSEGKPDRPHYNYYAMLLTLLIFIIVFGNVLVCMAVSREKALQTTTNYLIVSLAVADLLVATLVMPWVVYLEVVGEWKFSRIHCDIFVTLDVMMCTASILNLCAISIDRYTAVAMPMLYNTRYSSKRRVTVMIAIVWVLSFTISCPLLFGLNNTDQNECIIANPAFVVYSSIVSFYVPFIVTLLVYIKIYIVLRKRRKRVNTKRSSRAFRANLKTPLKGNCTHPEDMKLCTVIMKSNGSFPVNRRRMDAARRAQELEMEMLSSTSPPERTRYSPIPPSHHQLTLPDPSHHGLHSNPDSPAKPEKNGHAKIVNPRIAKFFEIQTMPNGKTRTSLKTMSRRKLSQQKEKKATQMLAIVLGVFIICWLPFFITHILNIHCDCNIPPVLYSAFTWLGYVNSAVNPIIYTTFNIEFRKAFMKILHC |  |  |  |  |  |  |  |  | binding result [6]: no binding
5 | TAT-5HT2AR-CT: CT region (K385-V471) of 5-HT2AR fused with TAT (peptide, UniProt P28223 385-471, looked up, fragment, C-terminal region fused with TAT peptide, CT region (K385-V471) of 5-HT2AR fused with TAT) KTYRSAFSRYIQCQYKENKKPLQLILVNTIPALAYKSSQLQMGQKKNSKQDAKTTDNDCSMVALGKQHSEEASKDNSDGVNEKVSCV |  | successfully destroyed the interaction of 5-HT2AR/D1R | significantly increased the residence time | did not cause a significant change | significantly reduced the interaction between 5-HT2AR and D1R | decreased residence time at the closed arm | significantly increased residence time at the open arm | did not cause a significant change | 
6 | GST-5HT2AR-CT: GST fusion protein containing the CT region of 5-HT2AR (K385-V471) (protein, left off: a dimerising Fc or GST) KTYRSAFSRYIQCQYKENKKPLQLILVNTIPALAYKSSQLQMGQKKNSKQDAKTTDNDCSMVALGKQHSEEASKDNSDGVNEKVSCV | can pulldown DIR |  |  |  |  |  |  |  | 
